B1: Transient receptor potential cation channel subfamily M member 7 (Mus musculus), Q923J1 (parent)
chain: MSQKSWIESTLTKRECVYIIPSSKDPHRCLPGCQICQQLVRCFCGRLVKQHACFTASLAMKYSDVKLGEHFNQAIEEWSVEKHTEQSPTDAYGVINFQGGSHSYRAKYVRLSYDTKPEIILQLLLKEWQMELPKLVISVHGGMQKFELHPRIKQLLGKGLIKAAVTTGAWILTGGVNTGVAKHVGDALKEHASRSSRKICTIGIAPWGVIENRNDLVGRDVVAPYQTLLNPLSKLNVLNNLHSHFILVDDGTVGKYGAEVRLRRELEKTINQQRIHARIGQGVPVVALIFEGGPNVILTVLEYLQESPPVPVVVCEGTGRAADLLAYIHKQTEEGGNLPDAAEPDIISTIKKTFNFGQSEAVHLFQTMMECMKKKELITVFHIGSEDHQDIDVAILTALLKGTNASAFDQLILTLAWDRVDIAKNHVFVYGQQWLVGSLEQAMLDALVMDRVSFVKLLIENGVSMHKFLTIPRLEELYNTKQGPTNPMLFHLIRDVKQGNLPPGYKITLIDIGLVIEYLMGGTYRCTYTRKRFRLIYNSLGGNNRRSGRNTSSSTPQLRKSHETFGNRADKKEKMRHNHFIKTAQPYRPKMDASMEEGKKKRTKDEIVDIDDPETKRFPYPLNELLIWACLMKRQVMARFLWQHGEESMAKALVACKIYRSMAYEAKQSDLVDDTSEELKQYSNDFGQLAVELLEQSFRQDETMAMKLLTYELKNWSNSTCLKLAVSSRLRPFVAHTCTQMLLSDMWMGRLNMRKNSWYKVILSILVPPAILMLEYKTKAEMSHIPQSQDAHQMTMEDSENNFHNITEEIPMEVFKEVKILDSSDGKNEMEIHIKSKKLPITRKFYAFYHAPIVKFWFNTLAYLGFLMLYTFVVLVKMEQLPSVQEWIVIAYIFTYAIEKVREVFMSEAGKISQKIKVWFSDYFNVSDTIAIISFFVGFGLRFGAKWNYINAYDNHVFVAGRLIYCLNIIFWYVRLLDFLAVNQQAGPYVMMIGKMVANMFYIVVIMALVLLSFGVPRKAILYPHEEPSWSLAKDIVFHPYWMIFGEVYAYEIDVCANDSTLPTICGPGTWLTPFLQAVYLFVQYIIMVNLLIAFFNNVYLQVKAISNIVWKYQRYHFIMAYHEKPVLPPPLIILSHIVSLFCCVCKRRKKDKTSDGPKLFLTEEDQKKLHDFEEQCVEMYFDEKDDKFNSGSEERIRVTFERVEQMSIQIKEVGDRVNYIKRSLQSLDSQIGHLQDLSALTVDTLKTLTAQKASEASKVHNEITRELSISKHLAQNLIDDVPVRPLWKKPSAVNTLSSSLPQGDRESNNPFLCNIFMKDEKDPQYNLFGQDLPVIPQRKEFNIPEAGSSCGALFPSAVSPPELRQRRHGVEMLKIFNKNQKLGSSPNSSPHMSSPPTKFSVSTPSQPSCKSHLESTTKDQEPIFYKAAEGDNIEFGAFVGHRDSMDLQRFKETSNKIRELLSNDTPENTLKHVGAAGYSECCKTSTSLHSVQAESCSRRASTEDSPEVDSKAALLPDWLRDRPSNREMPSEGGTLNGLASPFKPVLDTNYYYSAVERNNLMRLSQSIPFVPVPPRGEPVTVYRLEESSPSILNNSMSSWSQLGLCAKIEFLSKEEMGGGLRRAVKVLCTWSEHDILKSGHLYIIKSFLPEVINTWSSIYKEDTVLHLCLREIQQQRAAQKLTFAFNQMKPKSIPYSPRFLEVFLLYCHSAGQWFAVEECMTGEFRKYNNNNGDEIIPTNTLEEIMLAFSHWTYEYTRGELLVLDLQGVGENLTDPSVIKAEEKRSCDMVFGPANLGEDAIKNFRAKHHCNSCCRKLKLPDLKRNDYTPDKIIFPQDESSDLNLQSGNSTKESEATNSVRLML

Variants of: B1
Details: with myh9_mouse Myh9, Q8VDD5
Sequence of myh9_mouse Myh9, Q8VDD5 (Q8VDD5 whole entry): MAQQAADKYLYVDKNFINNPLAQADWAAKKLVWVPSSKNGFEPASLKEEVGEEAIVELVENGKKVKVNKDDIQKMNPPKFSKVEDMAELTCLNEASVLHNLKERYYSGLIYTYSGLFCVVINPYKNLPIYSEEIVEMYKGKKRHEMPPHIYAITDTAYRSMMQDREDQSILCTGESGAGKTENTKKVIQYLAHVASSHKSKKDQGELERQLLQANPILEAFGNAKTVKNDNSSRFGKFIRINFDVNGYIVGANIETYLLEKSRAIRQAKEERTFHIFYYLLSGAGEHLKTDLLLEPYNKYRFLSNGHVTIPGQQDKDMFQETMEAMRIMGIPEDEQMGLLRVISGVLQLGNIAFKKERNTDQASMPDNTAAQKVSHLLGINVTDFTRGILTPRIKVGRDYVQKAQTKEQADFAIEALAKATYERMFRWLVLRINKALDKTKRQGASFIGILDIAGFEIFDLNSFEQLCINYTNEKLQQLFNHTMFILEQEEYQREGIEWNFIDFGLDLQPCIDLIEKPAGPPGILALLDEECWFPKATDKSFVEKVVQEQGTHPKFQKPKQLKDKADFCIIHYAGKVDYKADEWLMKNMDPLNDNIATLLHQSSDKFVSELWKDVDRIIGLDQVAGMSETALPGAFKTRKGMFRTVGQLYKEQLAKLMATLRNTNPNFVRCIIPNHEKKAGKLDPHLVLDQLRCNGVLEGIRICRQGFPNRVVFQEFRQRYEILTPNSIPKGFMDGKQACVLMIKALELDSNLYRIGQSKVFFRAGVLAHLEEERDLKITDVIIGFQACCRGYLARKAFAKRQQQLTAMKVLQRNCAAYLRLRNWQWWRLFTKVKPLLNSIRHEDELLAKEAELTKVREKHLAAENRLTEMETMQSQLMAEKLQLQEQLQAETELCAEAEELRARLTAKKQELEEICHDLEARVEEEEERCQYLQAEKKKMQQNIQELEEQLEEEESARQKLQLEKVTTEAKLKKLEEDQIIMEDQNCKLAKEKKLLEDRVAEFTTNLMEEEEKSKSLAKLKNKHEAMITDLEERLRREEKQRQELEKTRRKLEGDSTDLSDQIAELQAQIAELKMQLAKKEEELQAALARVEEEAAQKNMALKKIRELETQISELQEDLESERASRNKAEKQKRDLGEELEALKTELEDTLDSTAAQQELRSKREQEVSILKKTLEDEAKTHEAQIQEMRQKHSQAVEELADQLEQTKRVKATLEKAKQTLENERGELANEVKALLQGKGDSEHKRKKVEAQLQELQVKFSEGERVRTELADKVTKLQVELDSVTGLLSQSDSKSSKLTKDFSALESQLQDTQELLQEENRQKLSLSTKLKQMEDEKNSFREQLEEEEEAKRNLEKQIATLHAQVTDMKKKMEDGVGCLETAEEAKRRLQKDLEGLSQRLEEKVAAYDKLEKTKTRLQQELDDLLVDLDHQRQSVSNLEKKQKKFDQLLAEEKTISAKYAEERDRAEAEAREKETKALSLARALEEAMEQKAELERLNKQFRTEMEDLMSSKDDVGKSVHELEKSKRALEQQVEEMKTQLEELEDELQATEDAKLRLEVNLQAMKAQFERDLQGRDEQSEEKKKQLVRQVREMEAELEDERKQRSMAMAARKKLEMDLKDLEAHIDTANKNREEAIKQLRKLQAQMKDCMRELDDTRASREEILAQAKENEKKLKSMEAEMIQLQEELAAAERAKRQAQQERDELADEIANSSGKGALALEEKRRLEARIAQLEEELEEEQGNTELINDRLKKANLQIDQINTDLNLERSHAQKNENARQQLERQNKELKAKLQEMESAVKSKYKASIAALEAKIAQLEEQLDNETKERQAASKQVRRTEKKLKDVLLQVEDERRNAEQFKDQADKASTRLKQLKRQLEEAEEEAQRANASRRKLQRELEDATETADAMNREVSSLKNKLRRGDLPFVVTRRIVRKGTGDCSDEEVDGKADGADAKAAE

Variant	effect of a mutation on the interaction
D1775A	decreasing interaction

Source: IntAct's records for PubMed 16407977
